B1: Tyrosine-protein kinase JAK2 (Mus musculus), Q62120 (parent)
chain: MGMACLTMTEMEATSTSPVHQNGDIPGSANSVKQIEPVLQVYLYHSLGQAEGEYLKFPSGEYVAEEICVAASKACGITPVYHNMFALMSETERIWYPPNHVFHIDESTRHDILYRIRFYFPHWYCSGSSRTYRYGVSRGAEAPLLDDFVMSYLFAQWRHDFVHGWIKVPVTHETQEECLGMAVLDMMRIAKEKDQTPLAVYNSVSYKTFLPKCVRAKIQDYHILTRKRIRYRFRRFIQQFSQCKATARNLKLKYLINLETLQSAFYTEQFEVKESARGPSGEEIFATIIITGNGGIQWSRGKHKESETLTEQDVQLYCDFPDIIDVSIKQANQECSNESRIVTVHKQDGKVLEIELSSLKEALSFVSLIDGYYRLTADAHHYLCKEVAPPAVLENIHSNCHGPISMDFAISKLKKAGNQTGLYVLRCSPKDFNKYFLTFAVERENVIEYKHCLITKNENGEYNLSGTKRNFSNLKDLLNCYQMETVRSDSIIFQFTKCCPPKPKDKSNLLVFRTNGISDVQISPTLQRHNNVNQMVFHKIRNEDLIFNESLGQGTFTKIFKGVRREVGDYGQLHKTEVLLKVLDKAHRNYSESFFEAASMMSQLSHKHLVLNYGVCVCGEENILVQEFVKFGSLDTYLKKNKNSINILWKLGVAKQLAWAMHFLEEKSLIHGNVCAKNILLIREEDRRTGNPPFIKLSDPGISITVLPKDILQERIPWVPPECIENPKNLNLATDKWSFGTTLWEICSGGDKPLSALDSQRKLQFYEDKHQLPAPKWTELANLINNCMDYEPDFRPAFRAVIRDLNSLFTPDYELLTENDMLPNMRIGALGFSGAFEDRDPTQFEERHLKFLQQLGKGNFGSVEMCRYDPLQDNTGEVVAVKKLQHSTEEHLRDFEREIEILKSLQHDNIVKYKGVCYSAGRRNLRLIMEYLPYGSLRDYLQKHKERIDHKKLLQYTSQICKGMEYLGTKRYIHRDLATRNILVENENRVKIGDFGLTKVLPQDKEYYKVKEPGESPIFWYAPESLTESKFSVASDVWSFGVVLYELFTYIEKSKSPPVEFMRMIGNDKQGQMIVFHLIELLKSNGRLPRPEGCPDEIYVIMTECWNNNVSQRPSFRDLSLRVDQIRDSIAA
partner: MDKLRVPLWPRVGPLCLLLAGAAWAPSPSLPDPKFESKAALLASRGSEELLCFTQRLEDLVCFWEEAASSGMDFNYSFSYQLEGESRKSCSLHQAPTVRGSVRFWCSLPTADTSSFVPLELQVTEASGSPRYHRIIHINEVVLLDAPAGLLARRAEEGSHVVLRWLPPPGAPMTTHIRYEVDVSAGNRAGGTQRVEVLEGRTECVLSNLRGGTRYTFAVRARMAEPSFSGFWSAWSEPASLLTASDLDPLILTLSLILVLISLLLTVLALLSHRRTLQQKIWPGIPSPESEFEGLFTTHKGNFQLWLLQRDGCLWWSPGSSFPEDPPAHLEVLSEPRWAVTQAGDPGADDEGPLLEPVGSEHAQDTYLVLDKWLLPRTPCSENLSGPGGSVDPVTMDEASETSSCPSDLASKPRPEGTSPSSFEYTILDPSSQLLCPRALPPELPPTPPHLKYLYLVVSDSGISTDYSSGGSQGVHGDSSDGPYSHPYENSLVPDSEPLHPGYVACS
B2: Tyrosine-protein kinase JAK2 (Mus musculus), Q62120 (parent)
chain: B1 chain
partner: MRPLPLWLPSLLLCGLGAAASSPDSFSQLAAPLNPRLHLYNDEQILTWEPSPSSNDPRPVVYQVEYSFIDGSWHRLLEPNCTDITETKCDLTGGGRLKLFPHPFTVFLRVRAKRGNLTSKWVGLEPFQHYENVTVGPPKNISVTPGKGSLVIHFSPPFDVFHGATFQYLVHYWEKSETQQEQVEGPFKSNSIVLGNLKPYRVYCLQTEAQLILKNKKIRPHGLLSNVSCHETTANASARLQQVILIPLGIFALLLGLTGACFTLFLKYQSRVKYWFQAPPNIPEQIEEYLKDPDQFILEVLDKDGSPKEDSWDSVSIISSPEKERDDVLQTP

The variants in the first experiment derive from B1. The note with it: with epor_mouse Epor.
On to Y119E, for which the “effect of a mutation on the interaction” value is listed as “disrupting interaction”.

Y1007F: the “effect of a mutation on the interaction” value is “decreasing interaction”.

The next experiment covers variants of B2. The note with it: with Ifngr2, Q63953.
On to Y119E, for which the “effect of a mutation on the interaction” value is “decreasing interaction”.

Regarding Y1007F, the “effect of a mutation on the interaction” value is reported as “decreasing interaction”.

The values above are taken from IntAct's records for PubMed 17024180.
